Source: patent US20260200999A1, “SYNTHETIC TRANSCRIPTION FACTORS” (ETH ZURICH, priority 2022, published 2026)

B1: SEQ ID NO: 33: MTERF158-399 fused to two copies of FOXO3604-644 (protein)
chain: HEKFPSDLDLDMFNGSLECDMESIIRSELMDADGLDFNFDSHEKFPSDLDLDMFNGSLECDMESIIRSELMDADGLDFNFDS
B2: SEQ ID NO: 35: MTERF158-399 fused to two copies of RelA521-551 (protein)
chain: PGLPNGLLSGDEDFSSIADMDFSALLSQISSPGLPNGLLSGDEDFSSIADMDFSALLSQISS
B3: RelA361-551: MTERF158-399 fused to RelA361-551 transactivation domain (PIT2 version) (protein, listed as Homo sapiens)
chain: DEFPTMVFPSGQISQASALAPAPPQVLPQAPAPAPAPAMVSALAQAPAPVPVLAPGPPQAVAPPAPKPTQAGEGTLSEALLQLQFDDEDLGALLGNSTDPAVFTDLASVDNSEFQQLLNQGIPVAPHTTEPMLMEYPEAITRLVTGAQRPPDPAPAPLGAPGLPNGLLSGDEDFSSIADMDFSALLSQISS
B4: LMSTEN: MTERF158-399 fused to the LMSTEN domain of MYB (protein, listed as Homo sapiens)
chain: EAQNVSSHVPYPVALHVNIVNVPQPAAAAIQRHYNDEDPEKEKRIKELELLLMSTENELKGQQVLPTQNHTCSYPGWHST
B5: MTERF173-399: MTERF1 lacking N-term, fused to RelA430-551 (protein, listed as Homo sapiens)
chain: EDLLKNLLTMGVDIDMARKRQPGVFHRMITNEQDLKMFLLSKGASKEVIASIISRYPRAITRTPENLSKRWDLWRKIVTSDLEIVNILERSPESFFRSNNNLNLENNIKFLYSVGLTRKCLCRLLTNAPRTFSNSLDLNKQMVEFLQAAGLSLGHNDPADFVRKIIFKNPFILIQSTKRVKANIEFLRSTFNLNSEELLVLICGPGAEILDLSNDYARRSYANIKEKLFSLGCTEEEVQKFVLSYPDVIFLAEKKFNDKIDCLMEENISISQIIENPRVLDSSISTLKSRIKELVNAGCNLSTLNITLLSWSKKRYEAKLKKLSRFA
B6: MTERF1104-399: MTERF1 lacking N-term and first Mterf motif, fused to RelA430-551 (protein, listed as Homo sapiens)
chain: EQDLKMFLLSKGASKEVIASIISRYPRAITRTPENLSKRWDLWRKIVTSDLEIVNILERSPESFFRSNNNLNLENNIKFLYSVGLTRKCLCRLLTNAPRTFSNSLDLNKQMVEFLQAAGLSLGHNDPADFVRKIIFKNPFILIQSTKRVKANIEFLRSTFNLNSEELLVLICGPGAEILDLSNDYARRSYANIKEKLFSLGCTEEEVQKFVLSYPDVIFLAEKKFNDKIDCLMEENISISQIIENPRVLDSSISTLKSRIKELVNAGCNLSTLNITLLSWSKKRYEAKLKKLSRFA
B7: MTERF1135-399: MTERF1 lacking N-term and first and second Mterf motif, fused to RelA430-551 (protein, listed as Homo sapiens)
chain: TPENLSKRWDLWRKIVTSDLEIVNILERSPESFFRSNNNLNLENNIKFLYSVGLTRKCLCRLLTNAPRTFSNSLDLNKQMVEFLQAAGLSLGHNDPADFVRKIIFKNPFILIQSTKRVKANIEFLRSTFNLNSEELLVLICGPGAEILDLSNDYARRSYANIKEKLFSLGCTEEEVQKFVLSYPDVIFLAEKKFNDKIDCLMEENISISQIIENPRVLDSSISTLKSRIKELVNAGCNLSTLNITLLSWSKKRYEAKLKKLSRFA

System: Response Element-driven mCerulean reporter (MTERF1 binding sites, SEQ ID NO: 42)
Experiment: mCerulean reporter co-transfection with HumTAP constructs in HEK293 cells (flow cytometry)
Type: cell-based, human
Conditions: HEK293; for reporter gene (mCerulean) expression / mCerulean expression, fold lower than the benchmark RelA430-551 TAD / reporter (mCerulean) expression: TAD fused to MTERF158-399; for reporter gene (mCerulean) expression: 5xRE reporter without spacer (SEQ ID NO: 48), compared with RelA430-551 (Example 1, FIG. 4A); for mCerulean expression, fold lower than the benchmark RelA430-551 TAD: FIG. 9B; for reporter (mCerulean) expression: pEF1a-driven, Example 4, FIG. 9B, C; for fluorescence relative to only one copy of the respective TAD: Example 1, FIG. 4A; for output expression / transcriptional activation: N-terminally truncated MTERF1 fused to RelA430-551, reporter SEQ ID NO: 48 (Example 1, FIG. 5B); for reporter expression, times less than with MTERF158-399: truncated MTERF1 DBD
From the text: To construct a promoter with Response Elements/MTERF1 binding sites driving the gene of interest, the inventors placed MTERF1 binding sites (SEQ ID NO: 42) upstream a minimal TATA box (SEQ ID NO: 103). An mCerulean fluorescent reporter representing the gene of interest (Gol) was placed downstream of the TATA box. Each of these is referred to as a reporter construct. Five different reporter constructs were made comprising respectively 3, 5, 7, 9, and 11 MTERF1 binding sites 6 base pairs apart upstream of the TATA box (FIG. 1A; SEQ ID NO: 41, 44, 45, 46 and 47, respectively). They were co-transfected with the MTF construct into Hela cells. […] Using flow cytometry, relative mCerulean levels were measured and calculated by normalization to the transfection control in Hela cells (FIG. 1C). […] Next, reporter plasmids with varying spacer lengths (0, 6 bp and 10 bp; SEQ ID NO: 48, 44 and 49, respectively) (FIG. 1F) between a fixed number of REs (i.e. 5 REs/MTERF1 binding sites) were transfected with the MTF construct. […] This was confirmed using flow cytometry (FIG. 1H). […]
With the goal to engineer stronger and possibly shorter HumTAPs, the inventors fused the MTERF158-399 peptide (SEQ ID NO: 1) to a variety of transactivation domains and transfected HEK293 cells with those constructs and the reporter construct comprising 5×RE/MTERF1 binding sites without a spacer between them (SEQ ID NO: 48).
First, MTERF158-399 (SEQ ID NO: 1) was fused with different subsequences of RelA. RelA361-551 (SEQ ID NO: 27) corresponds to the sequence used in the construction of the bacterial-derived synthetic TF PIT2 [19], while RelA342-551 (SEQ ID NO: 29) contains all annotated transactivation domains according to domain annotation under Uniprot Q04206 (https://www.uniprot.org/uniprotkb/Q04206/entry). […] We also fused MTERF158-399 (SEQ ID NO: 1) to a set of transactivation domains previously found to be strong activators with a small genetic footprint (FIG. 4B).
To further decrease the DNA footprint of a HumTAP, the inventors investigated to what degree the DNA binding domain may be reduced. To this end, the inventors created 3 versions of MTERF1 subsequences fused to RelA430-551 (SEQ ID NO: 3). MTERF173-399 (SEQ ID NO: 7), MTERF1104-399 (SEQ ID NO: 9), and MTERF1135-399 (SEQ ID NO: 11) are subunits of MTERF1 without its mitochondrial transfer peptide (MTERF11-57; SEQ ID NO: 37) that either lack only the first […] N-terminal amino acids (MTERF58-72; SEQ ID NO: 39) or additionally, also lack the first (MTERF173-98; SEQ ID NO: 104) or both the first and second (MTERF1104-134; SEQ ID NO: 106) mterf motifs (FIG. 5A). The removal of N-terminal domains reduces the genetic footprint of a HumTAP (FIG. 5B). These constructs were co-transfected into HEK293 cells with the reporter construct containing 5×RE without a spacer in its promoter (SEQ ID NO: 48).
In addition to RelA430-551 (termed “v1”), the inventors tested three alternative subsequences: v2) RelA342-551 (SEQ ID NO: 29), which contains all transactivation domains as annotated on UniProt Q04206; v3) RelA361-551 (SEQ ID NO: 27), which is identical to the peptide used in the construction of PIT2 [2]; and v4) RelA521-551 (SEQ ID NO: 31), which constitutes only the transactivation domain 1 (TA1). The protein domains WW (SEQ ID NO: 21), KRAB of ZNF473 (SEQ ID NO: 23), Nuc-rec-co-Act (SEQ ID NO: 25), LMSTEN (SEQ ID NO: 19), and FoxoTAD (SEQ ID NO: 17) were recently identified as strong transactivators. To assess their functionality in the HumTAP context, the inventors created fusion proteins between each of them and MTERF158-399 (SEQ ID NO: 1) (FIG. 9A).
Upon co-transfection of HEK293 cells with plasmids encoding pEF1a-driven expression of the fusion HumTAPs, a Response Element-driven mCerulean reporter protein, and a mCherry transfection control, all peptides derived from RelA except TA1 mediated high levels of reporter gene expression. […]

[1] = two copies of TAD fused to MTERF158-399

Row | Molecule | reporter gene (mCerulean) expression | reporter (mCerulean) expression | also measured
1 | FoxoTAD: MTERF158-399 fused to the FOXO-TAD domain of FOXO3 (HEKFPSDLDLDMFNGSLECDMESIIRSELMDADGLDFNFDS; listed as Homo sapiens) | mediated significant mCerulean expression |  | mCerulean expression, fold lower than the benchmark RelA430-551 TAD: 8.4 fold
2 | NucRecCoAct: MTERF158-399 fused to the Nuc_rec_co-act domain of NCOA3 (EGQSDERALLDQLHTLLSNTDATGLEEIDRALGIPELVNQGQALEPKQ; listed as Homo sapiens) | did not lead to high reporter expression | little to no reporter expression | 
3 | RelA342-551: MTERF158-399 fused to RelA342-551, containing all annotated transactivation domains | stronger reporter gene expression |  | 
4 | TA1: MTERF158-399 fused to the TA1 domain of RelA (PGLPNGLLSGDEDFSSIADMDFSALLSQISS; listed as Homo sapiens) | did not activate reporter gene expression significantly | little to no reporter expression | 
5 | VP64: MTERF158-399 fused to VP64, viral-derived transactivation domain repeats of HHV11 linked by a GS linker (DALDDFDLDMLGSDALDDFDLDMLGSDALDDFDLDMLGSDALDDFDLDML) | lower reporter expression than the benchmark |  | 
6 | WW: MTERF158-399 fused to the WW domain of WWC1 | did not lead to high reporter expression | little to no reporter expression | 
7 | ZNF473 KRAB: MTERF158-399 fused to the KRAB domain of ZNF473 (FVTLKDVGMDFTLGDWEQLGLEQGDTFWDTALDNCQDLFLLDPP; listed as Homo sapiens) | did not lead to high reporter expression | little to no reporter expression | 
8 | B1 |  | enhanced the transcriptional activity of the synthetic TF more than two copies of TA1 or two copies of LMSTEN | mCerulean expression, fold more than the benchmark RelA430-551 TAD (fused to MTERF158-399, FIG. 9C): ~ 2 fold; fluorescence relative to only one copy of the respective TAD [1]: 12 times; mCerulean/reporter expression, fold more than one copy of the TAD (two copies of TAD fused to MTERF158-399, Example 4, FIG. 9C): 20 fold
9 | B2 |  | led to reporter expression | fluorescence relative to only one copy of the respective TAD [1]: 201 times
10 | B3 | stronger reporter gene expression |  | 
11 | B4 | mediated significant mCerulean expression |  | mCerulean expression, fold lower than the benchmark RelA430-551 TAD: 11.3 fold
12 | B5 |  |  | output expression / transcriptional activation: reduced but not abolished; reporter expression, times less than with MTERF158-399 (FIG. 9E): ~ 1.5 times
13 | B6 |  |  | output expression / transcriptional activation: reduced but not abolished; reporter expression, times less than with MTERF158-399 (FIG. 9E): ~ 1.5 times
14 | B7 |  |  | functionality of synTF with truncated DBD (FIG. 9E): non-functional; output expression / transcriptional activation: complete loss of transcriptional activation
